Experiment: soluble on expression in E. coli; label from the status in PepcDB or PDB records

Row | Sequence | soluble on expression in E. coli
1 | MGSDKIHHHHHHMKIKCIITDDEPIARKGLRGYIEKVDFLTLTGECEDAVQLNTILKTQEIDLLFLDIEMPEMTGIELLSNLTNPPKVIIVSAYEQYALKGYEFNVVDYLLKPVSFDRFIKSVNKIYDLLQTEQKEKNDYIFVKSNKLLKKILFKDILYIESMENYVVIQTVSCKEVVYTTLKQLNDSLPKDVFQQTHRSYIVNLEKVTAIDGNQLTLSSYKIPVARTFRDSIFNLILNNRLIIKS | not soluble
2 | MGSDKIHHHHHHMKDVMFYFEIHQPFRLRPTNLYDVKSEQNVFWDEKNEEIFRRVAERSYIPATRNLMEYGIKSSFSITGTAVEQALMYNTKVIDAIDDYVKSGLCEMLSETYYHSLASIWNYDEFKRQVDMHRDLMKRIFNVVPKVFRNTELIYDDRIAEMVKRMGFTSIITEGTDSIVKDHSPNYRYASPSGLNLYLRNYVMSDNISFRFSNTKWKDYPLTADKYAKWINESEGDMVNLFMDYETFGEHQTQETGIFDFMKYLPVYFRDYGIETITISEAEKRHRVKDVLSIPETISWADTRRDLSAWLENEMQIDTFDRIKKCREKAGRLWGYLQTSDIIYYMSIGLEQDFTVHEYFNPYKSPYLAFIYTNYALDKICGSSYGKNEI | not soluble
3 | MTIIKYIKFVVIIVIVTIVFSCSKNEAGNSEYDPSLPISLTDFFPIQGGMATRMVIEGANFGTDLSQIKVFFNQKEASILNVKNSIIYLLVPKLPGNDCIVTVKVGNQEARFTRNFQYIENYSVTTIAGQPGTNLFVEGTLAAAQFGPVQHLAIDDENNLFITERNGSDGKGTCSVLNEESGTVTFLFKASDNLNVPTVNAQTQNVYIPLDGGYTFYELNPVNQWIAKSRLVLHPSKEQQEAGMDDFEINWKHSLAFSRYDNMIYTRSYGGDLIKVDPETRVGQKIGNFFPNTDSFIVAHPTQPEILYIAYAAKHVIYTYNIETGEHKLFAGAFGQSGWNDGIATDAEFNSPRQMSLDMEGNIYIADSGNHCIRMIDKNGIVTTPIGQPGEAGYADGSPDMALLNDPRGVAVNSEGDVYIADLGNRCIRKLTLQLEHHHHHH | not soluble
4 | MGSDKIHHHHHHMFISDVHLGSKAAKADFLIDFLRYHDADIIYLVGDIVDGWRLRRSWHWPQSHNDVVQKLLRKARKGASITYIAGNHDEFARQFQGVHFGGIVVADRAIHETADGKRLLVIHGDQFDTVVHNQRWLAYLGDHAYDAAMIVNRVVTRLRQLLGLPYWSFSSWAKVKVKKAVNFIGSFQTVLTEEARRSHVDGVICGHIHHAAIENFDDVRYINTGDWVESCTAVVEHFDGRMEILTWAQVLPESFDEPFIPMLIEDRVGQAA | not soluble
5 | VPLTVADIDRWNAQAVREVFHAASARAEVTFEASRQLAALSIFANSGGKTAEAAAHHNAGIRRDLDAHGNEALAVARAADRAADGIVKVQSELAALRHAAAAAELTIDALINRVVPIPGLRSTEAQWARTLAKQTELQAELDAIMAEANAVDEELASAVNMADGDAPIPADSGPPVGPEGLTPTQLASDANEERLREERARLQAHLERLQAEYDQLSVRAARDYHNGILDGDAVGRLAALTDELSAARGRLGELDAVDEALSRAPETYLTQLQIPEDPNQQVLAAVAVGNPDTAANVSVTVPGVGSTTRGALPGMVTEARDLRSEVIRQLNAAGKPASVATIAWMGYHPPPNPLDTGSAGDLWQTMTDGQAHAGAADLSRYLQQVRANNPSGHLTVLGHSYGSLTASLALQDLDAQSAHPVNDVVFYGSPGLELYSPAQLGLDHGHAYVMQAPHDLITNLVAPLAPLHGWGLDPYLTPGFTELSSQAGFDPGGIWRDGVYAHGDYPRSFLDAAGQPQLRMSGYNLAAIAAGLPDNTVGPPLLPPILGGGMPAAPGPALRGGR | not soluble
6 | MLTFLFELDKNLPQKDEPRYDAYSKGFIEGDVTICASDSVFFQKSCMKVAELGIYLGQWMEQVQHGQNVPMKYETADREEVILGFFYEEDHNQWIVFSSWQEFELQERIATATLIESVQRYLYELNKELRMIEYPVTFDQYLRGERMMQLSYKRPCDSKADTTPIEVYNGSEQVGVVRGYYKNTLMRALDFIPKIGSNIIYEIKDSKDNIRVIAKDVSRQRQRRILVMYKDNHDAEHEILVCDGKLLDANFLFTFTYKAEEYVVHKTLFGMGKLLRKGYVIADWNIRLEEDMYYIEMNVYDEDYMQDQYLLLGVFHAVLYG | not soluble
7 | MGSDKIHHHHHHMTNKYEEFKTYLKKIGSGEFTGKSLTREETKSALMLMLKEEASAAQIGGFMIAHRIRRPIPEELAGMIDAYIELGPKIQSPSNQRQPIFFGMPFDGRKKTAPIYPLTTLLLLTQKQPVILHGGSRMPVKYGVTHNELFQALGINLTGLSIEQLQSFFNHNYLALIHQPDHFPLAENLIPYRDQIGKRPPLASMELIWTCHQGSHLHISGYVHSPTEERHWKTLELMGEQNVITIKGLEGGIDLSISRSSTIGQYKNQHGTRTVFHPKDYECSGKDIEWSDITEWKKFALQALNGEGPLTKALEWNAGIYFFYAGISSDIKEGINKAKEVINSGFALKQLEKLIHWSDENIDS | not soluble
8 | MIFGRSQRGKPPVEPVTLKILVAGGFGVGKTTLVGAVSEIRPLRTEELLTEAGRPVDDVSGVEGKHTTTVAMDFGRITLREDLVLYLFGTPGQERFWFMWDELSEGALGAVVLADTRRLEDCFAAIDYFERRSIPFVVGVNCFEGSARYPGETVRQALDLDEDVPLVMCDARDRESVKEVLIGVVQHAMTQAADRRRAVPTLEHHHHHH | not soluble
9 | MGSDKIHHHHHHMQIDQIETFLDLLETQSFNRTADRLDVTQSTVSGRVKALEKALGERLFERSRSGTQPTTAALRFETHARVLRRAWADGQADVKPFGTAVMLRIGIQHDLIDNHVADWLAALRQALPECGFYVDGDYSTQMCRDLETGALDLGVVFTPRPSPDLYFESMGEVTYQMVSTAQTSLPQIDPTNYILPNYAPAFAQTHAALLPGLSLGSVSSGQAAAVRGLLIALGGTTYLPTEMVSALITEGIAHHVPGAPDITQPVFVAMHLRNRHRAGYRRMANVLRDRVGT | not soluble
10 | MSLSKTSKMKKTEISKKPSELGISNKTQDDLSKYSDTVNIALFGVDRRLKTDVSRSDSIMILTMDPAHKKLKLSSIMRDTYVNVDGHGMTKITHAYAYGGPQLAIKTINENFKLNIKDYVTVDFYALEKIIDKLNGVEINVQSDEVGYLNGYIDEVSKYEKVTPNHVTSSGKQLLDGRQAVAYSRIRYTAGGDFVRTERQRTVLMAVFNKLQAQGKSNMVSMFDEILPYTETNMGSIDIAKYGTKFISSDISNIDQERFPLDGYCSGVTVDNVWYLKTDLNVTSDQMRKYIFEDVKPSPKASLVNIPEKEGHHHHHH | soluble
11 | MAAGESMAQRMVWVDLEMTGLDIEKDQIIEMACLITDSDLNILAEGPNLIIKQPDELLDSMSDWCKEHHGKSGLTKAVKESTVTLQQAEYEFLSFVRQQTPPGLCPLAGNSVHADKKFLDKHMPQFMKHLHYRIIDVSTVKELCRRWYPEDYEFAPKKAASHRALDDISESIKELQFYRNNIFKKKTDEKKRKIIENGETEKPVS | soluble
12 | MGSDKIHHHHHHMFTTQIHLKVLAMMLLCGLLNACSQTPQQCSSAIITTWSSAHSQITQDITTLSSTEFQGRKTDSEGARLTQAYLITRFTEMGLQPWQPNFAVPFSFQHQFSTVSGVNIIATIAAKTRSNRWRVITAHYDHLGQTANKMYPGADDNASGIAGMMAIAAQWQENPPLDDVNLMIVATDAEEPGLYGSYALVTLLQQYPLMDIELSVNLDMIGHPDRRRAIYMEGQKNLSNFESIKPLLMQQTQLCIRTHHTNLLSGRMKKSDWLRASDHYPFHKAGYSWVYFGVPPHAQYHTADDTIATLDIDFIVAVAETVYQMLSIDKLTKAP | not soluble
13 | MALMTNKTRALLIGGHGKVALLATPMLIDASVQVTSMYRNPDHRSEIEALGATTLERDVTTLSVEDWADLLKDFDVVVWSAGNGGKNGADATYAIDRDAAIASIDGAASLGEKAPRYIMVSYIGSSTHTIDPSASFYPYAESKKAADEHLSSTNLDYLILAPAALTLDEVNGVEVIADTNEAAAGRTTSRVLVAEVITEFVVRDFPQTRVLPFVDGESPLEHHHHHH | soluble
14 | MKDLLQAQQKLIPDLIDKMYKRFSILTTISKNQPVGRRSLSEHMDMTERVLRSETDMLKKQDLIKVKPTGMEITAEGEQLISQLKGYFDIYADDNRLSEGIKNKFQIKEVHVVPGDADNSQSVKTELGRQAGQLLEGILQEDAIVAVTGGSTMACVSEAIHLLPYNVFFVPARGGLGENVVFQANTIAASMAQQAGGYYTTMYVPDNVSETTYNTLLLEPSVINTLDKIKQANVILHGIGDALKMAHRRQSPEKVIEQLQHHQAVGEAFGYYFDTQGQIVHKVKTIGLQLEDLESKDFIFAVAGGKSKGEAIKAYLTIAPKNTVLITDEAAAKIILE | not soluble
15 | MSLPPCPQCASEYTYEDGGQYICPECAHEWNETESAADLAAQVRDANGAVLQNGDTVILIKDLKVKGSSMVIKQGTKVKGIRLQEGDHNIGCKIDGSAMNLKSEFVKKA | not soluble
16 | GPGSMAKWNALSAEIEAARASGDHTKLLAHVHVGLQMLQEIGATNAPIQCESLLCMEASQAHYKMMQYDEALQCAERACESLLRGCKAELQDKAQIAEIEVFMGFVLCKQGGHSAAVEAQELLQKVLHWIDVDAKSAMPMQAVAAVNLRRSVLTGLGLSTTVQATTLASKGETAEAKVLYAKGLDTLIEALNQHIDENDVELVKMTLEAILTSFEGLDDVSQAVATCRKYISWCRRHDDASGVADGESMLTALCARQKIENPLEAEKAKETEEATK | soluble
17 | MDEFPPIFIISLKDSPRKNIIAERLNALGLSFNFFDAIYGKELSKKQLSEINYDFYIQKFNARKRLTLGEIGCAISHIKLYEYIVKNNINEAIILEDDAIVSIYFKDIICDALKKISCKYEILFLDHGKAKIFPFTRSLVERYRLAKYISPSKKSKRIIIRTTAYIITLNGARKLLNYAYPIRMPSDYLTGTLQLTGINAYGIEPPCVFGGPISEIDQIEDRYCLEHHHHHH | not soluble
18 | MGSDKIHHHHHHMIDLHCHILSGIDDGAQTITDSLAMAQQAVAEGIHTIVATPHHQNGKYVNERASIIHQVKQLNDELQQHEIPLKVLPGQEVRLYGGLLEDYEAGKIVTLNETNKYIFIEFPSNHVPRYTEQLFYELRVKGMIPIIVHPERNAELIERPDKLYNLVNKGALTQVTAGSLLGKFGKKIKRFSLQLVEHNLTHMIASDAHNTTSRGFHLEESYELIEKEFGTTVMNDLRENPYLIISGKAIYKEDPEQIRRKKLFGIF | not soluble
19 | MTKIWTRDGFAENDPWVIETEEVKATGEQKPVLPLADFLVRAAESNDIGLGVLISPADDVNRLEPYLDRIDLVAVSFPAFNDGRGFSHASLLRSRLGFAGEVRAVGDVLIDQVPLMLRTGFTSFAVTNETAIRRLSENRLPEITVYYQPTALPATGGEAYSWRRRAAQ | not soluble
20 | PRGSHMIILAFDIFGTVLDTSTVIQEFRNKQLEYTWLLTIMGKYVEFEEITKITLRYILKVRGEESKFDEELNKWKNLKAYEDTKYLKEISEIAEVYALSNGSINEVKQHLERNGLLRYFKGIFSAESVKEYKPSPKVYKYFLDSIGAKEAFLVSSNAFDVIGAKNAGMRSIFVNRKNTIVDPIGGKPDVIVNDFKELYEWILRYK | soluble
21 | MASAEVVSKLEAAFAKLQNASDCHSLLKKYLTKEVFDQLKGKQTKMGATLMDVIQSGVENLDSGIGVYAPDAESYTLFAALLDPIIEDYHKGFKPSDKQPPKDSGDLNTFIDVDPDKKYVISTRVRCGRSLEGYPFNPCLKKQQYEEMESRVKGQLESMSGELRGKYYPLTGMTKETQKQLIDDHFLFKEGDRFLQAAHACKFWPTGRGIYHNDAKTFLVWVNEEDHLRIISMQKGGNLKEVFGRLVTAVGVIEEKVKFSRDDRLGFLTFCPTNLGTTIRASVHIKLPKLGADRKKLEEVAAKYNLQVRGTAGEHSDSPDGVYDISNKRRLGLSEYEAVKEMQDGILELIKAEESAR | soluble

Source: the DeepSol protein solubility set
